The supplement of paper PMC11246515
± gives the standard deviation of the averaged measurements.

Test: total protein half-life in vivo (active degradation + dilution); higher = more stable protein
[1] = E. coli NCM3722 delta-clpP delta-lon delta-hslV, growth: N-lim chemostat, doubling time 6 h
[2] = E. coli NCM3722 delta-clpP, growth: N-lim chemostat, doubling time 6 h
[3] = E. coli NCM3722 delta-hslV, growth: N-lim chemostat, doubling time 6 h
[4] = E. coli NCM3722 delta-lon, growth: N-lim chemostat, doubling time 6 h
[5] = E. coli NCM3722 delta-smpB, growth: N-lim chemostat, doubling time 6 h
[6] = wild type E. coli NCM3722, growth: C-lim chemostat, doubling time 3 h
[7] = wild type E. coli NCM3722, growth: C-lim chemostat, doubling time 6 h
[8] = wild type E. coli NCM3722, growth: C-lim chemostat, doubling time 12 h
[9] = wild type E. coli NCM3722, growth: N-lim chemostat, doubling time 6 h
[10] = wild type E. coli NCM3722, growth: N-lim chemostat, doubling time 12 h
[11] = wild type E. coli NCM3722, growth: P-lim chemostat, doubling time 6 h
[12] = wild type E. coli NCM3722, growth: P-lim chemostat, doubling time 12 h

Sequence	total protein half-life in vivo [1] [h]	total protein half-life in vivo [2] [h]	total protein half-life in vivo [3] [h]	total protein half-life in vivo [4] [h]	total protein half-life in vivo [5] [h]	total protein half-life in vivo [6] [h]	total protein half-life in vivo [7] [h]	total protein half-life in vivo [8] [h]	total protein half-life in vivo [9] [h]	total protein half-life in vivo [10] [h]	total protein half-life in vivo [11] [h]	total protein half-life in vivo [12] [h]
MSCPVIELTQQLIRRPSLSPDDAGCQALLIERLQAIGFTVERMDFADTQNFWAWRGQGETLAFAGHTDVVPPGDADRWINPPFEPTIRDGMLFGRGAADMKGSLAAMVVAAERFVAQHPNHTGRLAFLITSDEEASAHNGTVKVVEALMARNERLDYCLVGEPSSIEVVGDVVKNGRRGSLTCNLTIHGVQGHVAYPHLADNPVHRAAPFLNELVAIEWDQGNEFFPATSMQIANIQAGTGSNNVIPGELFVQFNFRFSTELTDEMIKAQVLALLEKHQLRYTVDWWLSGQPFLTARGKLVDAVVNAVEHYNEIKPQLLTTGGTSDGRFIARMGAQVVELGPVNATIHKINECVNAADLQLLARMYQRIMEQLVA [P0AED7]	4.94 ± 0.53	4.52 ± 0.093	4.42 ± 0.081	5.76 ± 1.5	4.4 ± 0.41	3.05 ± 0.25	5.7 ± 0.46	9.7 ± 0.28	4.418 ± 0.036	7.37 ± 0.72	5.6 ± 0.48	11 ± 1.8
MKNCVIVSAVRTAIGSFNGSLASTSAIDLGATVIKAAIERAKIDSQHVDEVIMGNVLQAGLGQNPARQALLKSGLAETVCGFTVNKVCGSGLKSVALAAQAIQAGQAQSIVAGGMENMSLAPYLLDAKARSGYRLGDGQVYDVILRDGLMCATHGYHMGITAENVAKEYGITREMQDELALHSQRKAAAAIESGAFTAEIVPVNVVTRKKTFVFSQDEFPKANSTAEALGALRPAFDKAGTVTAGNASGINDGAAALVIMEESAALAAGLTPLARIKSYASGGVPPALMGMGPVPATQKALQLAGLQLADIDLIEANEAFAAQFLAVGKNLGFDSEKVNVNGGAIALGHPIGASGARILVTLLHAMQARDKTLGLATLCIGGGQGIAMVIERLN	4.78 ± 0.92	3.36		2.93 ± 0.073	2.808 ± 0.0077	3.34	5.45 ± 1.1	8	2.92 ± 0.27	3.67 ± 0.067	5.43	
MTWLPLNPIPLKDRVSMIFLQYGQIDVIDGAFVLIDKTGIRTHIPVGSVACIMLEPGTRVSHAAVRLAAQVGTLLVWVGEAGVRVYASGQPGGARSDKLLYQAKLALDEDLRLKVVRKMFELRFGEPAPARRSVEQLRGIEGSRVRATYALLAKQYGVTWNGRRYDPKDWEKGDTINQCISAATSCLYGVTEAAILAAGYAPAIGFVHTGKPLSFVYDIADIIKFDTVVPKAFEIARRNPGEPDREVRLACRDIFRSSKTLAKLIPLIEDVLAAGEIQPPAPPEDAQPVAIPLPVSLGDAGHRSS	4.85 ± 0.84				1.32 ± 0.25	3.48	3.62 ± 1.9	5.4	1.32		2.23	
MLDKIDRKLLALLQQDCTLSLQALAEAVNLTTTPCWKRLKRLEDDGILIGKVALLDPEKIGLGLTAFVLIKTQHHSSEWYCRFVTVVTEMPEVLGFWRMAGEYDYLMRVQVADMKRYDEFYKRLVNSVPGLSDVTSSFAMEQIKYTTSLPIE [P0ACJ5]	5.92 ± 0.82	4.67 ± 0.26	4.43 ± 1.7	5.95	5.08 ± 0.24	3.37 ± 0.6	5.09 ± 0.47	8.43 ± 3.3	4.34 ± 0.2	9.01 ± 4.2	4.45	10.3 ± 3.2
MFSEVMRYILDLGPTVMLPIVIIIFSKILGMKAGDCFKAGLHIGIGFVGIGLVIGLMLDSIGPAAKAMAENFDLNLHVVDVGWPGSSPMTWASQIALVAIPIAILVNVAMLLTRMTRVVNVDIWNIWHMTFTGALLHLATGSWMIGMAGVVIHAAFVYKLGDWFARDTRNFFELEGIAIPHGTSAYMGPIAVLVDAIIEKIPGVNRIKFSADDIQRKFGPFGEPVTVGFVMGLIIGILAGYDVKGVLQLAVKTAAVMLLMPRVIKPIMDGLTPIAKQARSRLQAKFGGQEFLIGLDPALLLGHTAVVSASLIFIPLTILIAVCVPGNQVLPFGDLATIGFFVAMAVAVHRGNLFRTLISGVIIMSITLWIATQTIGLHTQLAANAGALKAGGMVASMDQGGSPITWLLIQVFSPQNIPGFIIIGAIYLTGIFMTWRRARGFIKQEKVVLAE	6.09											
MLKVLLLFVLLIAGIVVGPMIAGHQGYVLIQTDNYNIETSVTGLAIILILAMVVLFAIEWLLRRIFRTGAHTRGWFVGRKRRRARKQTEQALLKLAEGDYQQVEKLMAKNADHAEQPVVNYLLAAEAAQQRGDEARANQHLERAAELAGNDTIPVEITRVRLQLARNENHAARHGVDKLLEVTPRHPEVLRLAEQAYIRTGAWSSLLDIIPSMAKAHVGDEEHRAMLEQQAWIGLMDQARADNGSEGLRNWWKNQSRKTRHQVALQVAMAEHLIECDDHDTAQQIIIDGLKRQYDDRLLLPIPRLKTNNPEQLEKVLRQQIKNVGDRPLLWSTLGQSLMKHGEWQEASLAFRAALKQRPDAYDYAWLADALDRLHKPEEAAAMRRDGLMLTLQNNPPQ [P0ACB7]	5.91 ± 0.1	6.4161 ± 0.0029		6.1592 ± 0.004	5.98 ± 0.073	3.13 ± 0.12	6.13 ± 0.2	13.2 ± 0.85	6.64 ± 0.65	12.6 ± 0.5	6.1 ± 0.41	12.6 ± 0.95
MSRVTAIISALIICIIVSLSWAVNHYRDNAIAYKVQRDKNARELKLANAAITDMQMRQRDVAALDAKYTKELADAKAENDALRDDVAAGRRRLHIKAVCQSVREATTASGVDNAASPRLADTAERDYFTLRERLITMQKQLEGTQKYINEQCR								3.49				6.44
MNDLFSLAGKNILITGSAQGIGFLLATGLGKYGAQIIINDITAERAELAVEKLHQEGIQAVAAPFNVTHKHEIDAAVEHIEKDIGPIDVLVNNAGIQRRHPFTEFPEQEWNDVIAVNQTAVFLVSQAVTRHMVERKAGKVINICSMQSELGRDTITPYAASKGAVKMLTRGMCVELARHNIQVNGIAPGYFKTEMTKALVEDEAFTAWLCKRTPAARWGDPQELIGAAVFLSSKASDFVNGHLLFVDGGMLVAV [P0A9P9]	7.23	3.69	2.75		2.46	2.53 ± 0.38	4.78 ± 0.49	7.912 ± 0.017	3.01		4.98 ± 0.91	6.82 ± 0.6
